Assay results: paper doi:10.1101/2022.07.10.499282

Target: CXCL4 (platelet factor 4, PF4) (human)
Assay: AUC

## CXCL4 (platelet factor 4, PF4) (natural protein)
  stoichiometry N: 4
